Measurements published in patent US20180362660A1 (published 2018).
Substitutions are numbered along the chain they refer to.

How the values were obtained:
[1] = target: T1, mouse penumbra protein (mpen) fused to a C-terminal Myc-Hisx6 tag, on BaF3/mpen cells (mouse, UniProt Q8R3S2 1-283); assay: flow cytometry, hybridoma supernatant on live BaF3/mpen, GAMIgs-FITC detection
T1 construct: whole, on cells; Stably expressed in the pen-negative mouse pre-B cell line BaF3; also called cell-surface pen; tetraspanin 33; not shown: Myc-Hisx6 tag from vector pcDNA3.1 at the intracellular C-terminus
T1 sequence (looked up): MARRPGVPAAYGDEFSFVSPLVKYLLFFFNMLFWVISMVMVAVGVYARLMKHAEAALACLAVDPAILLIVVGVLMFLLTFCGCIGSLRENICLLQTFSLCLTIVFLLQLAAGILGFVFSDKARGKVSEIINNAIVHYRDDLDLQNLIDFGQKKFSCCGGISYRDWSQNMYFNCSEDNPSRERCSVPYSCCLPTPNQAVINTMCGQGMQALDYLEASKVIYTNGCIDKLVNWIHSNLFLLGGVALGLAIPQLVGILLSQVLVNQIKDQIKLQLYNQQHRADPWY
Protocol: (§1) The medium used for cell staining was Hank's Balanced Salt Solution (HBSS) supplemented with heat-inactivated FBS (5% vol/vol) and sodium azide (0.09% wt/vol). This solution is known as “H5FAH”. All staining and washing were performed at 4° C. The flow cytometer used was a DxP flow cytometer with CYTOTEK™ upgrade (Cytotek). Analysis of flow cytometry data was performed using FLOWJO™ v. 9 (FIG. 3 only) or v.10 (Beckton-Dickinson)(BD). Fluorescence microscopy was performed using a microscope equipped with a digital camera.

[2] = target: T2, human penumbra protein (hpen) (human, UniProt Q86UF1 1-283); assay: flow cytometry on human blood mononuclear cells, FITC-conjugated mAb
T2 construct: whole, on cells; Untagged; also called BaF3/hpen; tetraspanin 33
T2 sequence (looked up): T1 sequence (looked up) with G6R, V7A, Y11S, D13E, I103A, R163K, N195D, L210F, V259I

[3] = target: T3, mouse penumbra protein (mpen), native, on primary mouse B lymphocytes (mouse, UniProt Q8R3S2 1-283); assay: flow cytometry on Balb/C mouse bone marrow cells, FITC-conjugated mAb
T3 construct: whole, on cells; This form has no tag, unlike m5; also called cell surface pen
T3 sequence (looked up): T1 sequence (looked up)
Protocol: Flow cytometry data were analyzed using FloJo v.10 software. The number in each quadrant denotes %. FIG. 5A: A dot plot of isotype-PE vs. isotype-FITC. FIG. 5B: A dot plot of isotype-PE vs. A296.2-FITC. FIG. 5C: Anti-CD19-PE vs. isotype-FITC. […] FIG. 5E: Anti-B220-PE vs. isotype-FITC. […] FIG. 5G: Anti-CD20-PE vs. isotype-FITC. […] FIG. 5I: Anti-CD138-PE vs. isotype-FITC. […] FIG. 5K: Anti-CD117-PE vs. isotype-FITC. […] FIG. 5M: TER119-PE vs. isotype-FITC. […] FIG. 5O: Anti-Mac-1-PE vs. isotype-FITC. […] Data shown were lymphocyte-gated.
as §1

[4] = target: T1, mouse penumbra protein (mpen) fused to …; assay: indirect immunofluorescence microscopy on live BaF3/mpen
[5] = target: T2, human penumbra protein (hpen); assay: immunofluorescence microscopy on live BaF3/hpen
[6] = target: T1, mouse penumbra protein (mpen) fused to …; assay: immunofluorescence microscopy on live BaF3/mpen

Measured: binding result

B1: mAb 29A6.2 (antibody, V domains shown)
VH: QVQLKQSGPGLVQPSQSLSITCTVSGFSLTSYGVHWVRQSPGKGLEWLGVIWSGGSTDYNAAFISRLSISKDNSKSQVFFKMNSLQADDTAIYYCATFDYWGQGTTLTVSS
VL: DIVITQDELSNPVTSGESVSISCRSSKSLLYKDGKTYLNWFLQRPGQSPQLLIYLMSTRASGVSDRFSGSGSGTDFTLEISRVKAEDVGVYYCQQLVEYPFTFGSGTKLEIKR
notes: Tested as hybridoma supernatant or as purified, FITC-conjugated antibody; also called 29A6.2-FITC; hybridoma 29A6.2
binds: [1] | [2] | [3]

B2: mAb 41B10.13 (antibody, V domains shown)
VH: QVQLKESGPGLVAPSQSLSITCTVSGFSLTSYAISWVRQPPGKGLEWLGVIWTGGGTNYNSALKSRLSISKDNSKSQVFLKMNSLQTDDTARYYCAREGNAYYSNYESTAYWGQGTLVTVSA
VL: B1 VL
notes: The first 19 amino acids of each entry are signal peptides and are left out; Tested as hybridoma supernatant or as purified, FITC-conjugated antibody; also called 41B10.13-FITC; 41B10-FITC
binds: [4] | [3] | [5]

B3: mAb 59E6.8 (antibody, V domains shown)
VH: QVQLQQPGAELVKPGASVKMSCKASGYTFTSYWITWVKQRPGQGLEWIGDIYPGSGSTNYNEKFKSKATLTVDTSSSTAYMQLSSLTSEDSAVYYCARDYYGSSYDYWGQGTTLTVSS
VL: B1 VL
notes: The first 19 amino acids of each entry are signal peptides and are left out; Tested as hybridoma supernatant or as purified, FITC-conjugated antibody; also called 59E6.8-FITC; anti-pen mAb
binds: [6] | [3] | [5]
